Results from EP4714974A1 (Shanghai Qilu Pharmaceutical Research and Development …, dated 2026).

T1: cynomolgus monkey CD3 (purchased from Acro, Cat. No. CDD-C52W4) (cynomolgus monkey, UniProt Q95LI5 22-117)
T1 construct: Bought reagent
T1 sequence (looked up): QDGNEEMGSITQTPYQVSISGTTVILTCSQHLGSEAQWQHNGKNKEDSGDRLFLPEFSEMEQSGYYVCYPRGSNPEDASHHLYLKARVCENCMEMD

T2: cynomolgus monkey GPRC5D (cynomolgus monkey)
T2 chain: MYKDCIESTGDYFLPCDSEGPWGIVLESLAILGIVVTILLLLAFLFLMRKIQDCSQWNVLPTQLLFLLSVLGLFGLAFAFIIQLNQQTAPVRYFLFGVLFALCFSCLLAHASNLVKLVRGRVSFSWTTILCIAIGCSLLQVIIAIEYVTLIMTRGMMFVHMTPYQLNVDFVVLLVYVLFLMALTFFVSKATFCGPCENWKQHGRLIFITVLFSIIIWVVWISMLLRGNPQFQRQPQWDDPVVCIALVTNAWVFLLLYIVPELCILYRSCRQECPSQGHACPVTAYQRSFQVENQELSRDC

B1: Bispecific antibody 1 (bispecific antibody, human IgG1, kappa, L234A L235A)
heavy 1: not shown
heavy 2: QVQLVQSGAEVKKPGASVKVSCKASGYTFTSYIIHWVRQAPGQGLEWIGYINPYNDGTKYNEKFKGRVTMTSDTSTSTVYMELSSLRSEDTAVYYCARGGIRAFMNYWGQGTLVTVSSASTKGPSVFPLAPSSKSTSGGTAALGCLVKDYFPEPVTVSWNSGALTSGVHTFPAVLQSSGLYSLSSVVTVPSSSLGTQTYICNVNHKPSNTKVDKKVEPKSCDKTHTCPPCPAPEAAGGPSVFLFPPKPKDTLMISRTPEVTCVVVDVSHEDPEVKFNWYVDGVEVHNAKTKPREEQYNSTYRVVSVLTVLHQDWLNGKEYKCKVSNKALPAPIEKTISKAKGQPREPQVCTLPPSRDELTKNQVSLSCAVKGFYPSDIAVEWESNGQPENNYKTTPPVLDSDGSFFLVSKLTVDKSRWQQGNVFSCSVMHEALHNRYTQKSLSLSPGK
light: DIQMTQSPSSLSASVGDRVTITCKASQDVGTAVAWYQQKPGKAPKLLIYWASTRHTGVPSRFSGSGSGTDFTLTISSLQPEDFATYYCQHYISWTFGQGTKVEIKRTVAAPSVFIFPPSDEQLKSGTASVVCLLNNFYPREAKVQWKVDNALQSGNSQESVTEQDSKDSTYSLSSTLTLSKADYEKHKVYACEVTHQGLSSPVTKSFNRGEC
notes: 2+1 format: two GPRC5D Fabs and one CD3 scFv placed between a Fab and the Fc; also called anti-CD3-GPRC5D bispecific antibody 1; anti-GPRC5D/CD3 bispecific antibody
B2: Bispecific antibody 2 (bispecific antibody)
heavy: not shown
light: DIQMTQSPSSLSASVGDRVTITCKASQDVGTAVAWYQQKPGKAPKLLIYWASTRHTGVPSRFSGSGSGTDFTLTISSLQPEDFATYYCQHYISWTFGQGTKVEIKRTVAAPSVFIFPPSDEQLKSGTASVVCLLNNFYPREAKVQWKVDNALQSGNSQESVTEQDSKDSTYSLSSTLTLSKADYEKHKVYACEVTHQGLSSPVTKSFNRGEC
chain: DKTHTCPPCPAPEAAGGPSVFLFPPKPKDTLMISRTPEVTCVVVDVSHEDPEVKFNWYVDGVEVHNAKTKPREEQYNSTYRVVSVLTVLHQDWLNGKEYKCKVSNKALPAPIEKTISKAKGQPREPQVCTLPPSRDELTKNQVSLSCAVKGFYPSDIAVEWESNGQPENNYKTTPPVLDSDGSFFLVSKLTVDKSRWQQGNVFSCSVMHEALHNRYTQKSLSLSPGK
notes: 1+1 format: one GPRC5D Fab, one CD3 scFv between Fab and Fc, Fc-only hole chain; also called anti-CD3-GPRC5D bispecific antibody 2; anti-GPRC5D/CD3 bispecific antibody
B3: 18CH-16 (chimeric mouse hybridoma-derived anti-GPRC5D antibody) (antibody, V domains shown)
VH: EVQLQQSGPELVKPGASVKMSCKASGYTFTSYIIHWVKQKPGQGLEWIGYINPYNDGTKYNEKFKGKATLTSDRSSSTAYMEVSSLTSEDSAVYYCARGGIRAFMNYWGQGTSVTVSS
VL: DIVMTQSHKFMSTSVGDRVSITCKASQDVGTAVAWYQQKPGQSPKLLIYWASTRHTGVPDRFTGSGSGTDFTLSISNVQSEDLADYFCQHYISWTFGGGTNLEIK
notes: also called parent antibody
B4: 18CH16H2L1 (humanized mouse hybridoma-derived anti-GPRC5D antibody) (antibody, V domains shown)
VH: QVQLVQSGAEVKKPGASVKVSCKASGYTFTSYIIHWVRQAPGQGLEWIGYINPYNDGTKYNEKFKGRVTMTSDTSTSTVYMELSSLRSEDTAVYYCARGGIRAFMNYWGQGTLVTVSS
VL: DIQMTQSPSSLSASVGDRVTITCKASQDVGTAVAWYQQKPGKAPKLLIYWASTRHTGVPSRFSGSGSGTDFTLTISSLQPEDFATYYCQHYISWTFGQGTKVEIK
notes: also called humanized clone 18CH16 antibody

Tests used:
human GPRC5D [1] = target: T3, human GPRC5D (human, UniProt Q9NZD1 1-345); assay: cell-based or functional assay
T3 sequence (Q9NZD1 whole entry): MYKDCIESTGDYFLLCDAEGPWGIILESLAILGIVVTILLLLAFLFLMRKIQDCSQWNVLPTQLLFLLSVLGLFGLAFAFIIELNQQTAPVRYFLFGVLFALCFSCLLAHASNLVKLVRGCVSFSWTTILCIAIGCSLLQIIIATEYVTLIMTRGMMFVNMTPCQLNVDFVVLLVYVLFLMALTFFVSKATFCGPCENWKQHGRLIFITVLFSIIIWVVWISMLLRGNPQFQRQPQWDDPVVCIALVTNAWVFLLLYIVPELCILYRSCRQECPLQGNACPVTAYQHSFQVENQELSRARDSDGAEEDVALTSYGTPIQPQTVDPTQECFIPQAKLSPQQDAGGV

[2] = target: T4, human CD3 on Jurkat cells (human, UniProt P07766 23-207); assay: flow cytometry (FACS) on Jurkat cells expressing hCD3
T4 construct: whole, on cells; CD3 complex on cells; also called hCD3; Jurkat cell strain
T4 sequence (P07766 23-207): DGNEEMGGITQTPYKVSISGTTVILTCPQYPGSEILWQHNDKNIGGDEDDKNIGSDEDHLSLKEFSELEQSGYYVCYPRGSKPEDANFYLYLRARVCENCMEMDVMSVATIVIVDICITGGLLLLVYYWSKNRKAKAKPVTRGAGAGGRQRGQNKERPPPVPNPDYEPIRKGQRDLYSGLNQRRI

human GPRC5D [3] = target: T3, human GPRC5D; assay: flow cytometry (FACS) on NCI-H929 cells expressing hGPRC5D
human GPRC5D [4] = target: T3, human GPRC5D; assay: flow cytometry (FACS) on RPMI8226 cells expressing hGPRC5D
[5] = target: T5, human CD3 (purchased from Acro, Cat. No. CDD-H52W1) (human, UniProt P07766 23-126); assay: SPR (Biacore 8K), CD3 immobilised on CM5 chip, bispecific antibody as analyte, 1:1 Langmuir fit
T5 construct: Bought reagent; also called human CD3 protein
T5 sequence (P07766 23-126): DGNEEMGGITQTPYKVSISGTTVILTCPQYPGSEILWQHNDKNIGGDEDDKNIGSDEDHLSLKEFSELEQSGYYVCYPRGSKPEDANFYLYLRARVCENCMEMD

[6] = target: T1, cynomolgus monkey CD3 (purchased from …); assay: as above
human GPRC5A = target: T6, human GPRC5A (human, UniProt Q8NFJ5 1-357); assay: flow cytometry on human GPRC5A-CHOK1 cells
T6 construct: whole, on cells; also called human GPRC5A-CHOK1 cell line
T6 sequence (Q8NFJ5 whole entry): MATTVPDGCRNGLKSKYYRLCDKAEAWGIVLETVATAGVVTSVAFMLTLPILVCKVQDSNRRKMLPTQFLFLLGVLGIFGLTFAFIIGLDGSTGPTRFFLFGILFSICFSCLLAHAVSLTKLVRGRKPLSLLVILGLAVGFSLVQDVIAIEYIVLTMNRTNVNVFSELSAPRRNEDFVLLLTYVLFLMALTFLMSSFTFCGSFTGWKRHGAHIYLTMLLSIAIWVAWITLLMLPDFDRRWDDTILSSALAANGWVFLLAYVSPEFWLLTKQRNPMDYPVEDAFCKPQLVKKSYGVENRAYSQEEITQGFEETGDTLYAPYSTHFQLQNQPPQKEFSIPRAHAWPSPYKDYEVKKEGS

human GPRC5D [7] = target: T3, human GPRC5D; assay: flow cytometry on human GPRC5D-CHOK1 cells
cynomolgus monkey GPRC5D = target: T2, cynomolgus monkey GPRC5D; assay: flow cytometry on cynomolgus monkey GPRC5D-CHOK1 cells
human GPRC5D [8] = target: T3, human GPRC5D; assay: flow cytometry on NCI-H929 cells
human GPRC5D [9] = target: T3, human GPRC5D; assay: flow cytometry on human GPRC5D-CHOK1 cells; remark: listed apart in the source

| Binder | TDCC EC50(nM), NCI-H929 cell strain (human GPRC5D [1]) | TDCC EC50(nM), RPMI8226 cell strain (human GPRC5D [1]) | EC50 [2] | EC50 (human GPRC5D [3]) | EC50 (human GPRC5D [4]) | Kd [5] | koff [5] | kon [5] | Kd [6] | koff [6] | kon [6] | binding result (human GPRC5A) | EC50 (human GPRC5D [7]) | EC50 (cynomolgus monkey GPRC5D) | EC50 (human GPRC5D [8]) | EC50 (human GPRC5D [9]) |
| --- | --- | --- | --- | --- | --- | --- | --- | --- | --- | --- | --- | --- | --- | --- | --- | --- |
| B1 | 0.001 nM | 0.01 nM | 22.1 nM | 1.07 nM | 7.48 nM | 20 nM | 0.00226 s⁻¹ | 113000 M⁻¹ s⁻¹ | 16.8 nM | 0.00292 s⁻¹ | 174000 M⁻¹ s⁻¹ |  |  |  |  |  |
| B2 | 0.017 nM | 0.08 nM | 12.9 nM | 5.19 nM | 22.9 nM | 18.1 nM | 0.00214 s⁻¹ | 118000 M⁻¹ s⁻¹ | 18.9 nM | 0.00279 s⁻¹ | 147000 M⁻¹ s⁻¹ |  |  |  |  |  |
| B3 |  |  |  |  |  |  |  |  |  |  |  | no binding (tested: 100 nM (initial concentration)) | 3.89 nM | 4.39 nM |  |  |
| B4 |  |  |  |  |  |  |  |  |  |  |  |  |  |  | 0.3 nM | 0.51 nM |
